Read-outs that look alike come from different tables or passages of the source.
Legend:
SSTR2 receptors = target: T1, SSTR2 receptors (Rattus norvegicus, UniProt P30680); test: Cell binding assay (membrane association and internalization); type: cell-based; settings: for decrease of binding by co-incubation with unlabeled DOTA-TATE: 1 h
T1 construct: CA20948 cells are derived from rat pancreas and express SSTR2 endogenously; endogenous in cells; host or cells: CA20948 rat pancreatic cancer cells
Method: Rat pancreatic cancer cell line CA20948 was used given the somatostatin receptor 2 (SSTR2) overexpression as it is found in many human neuroendocrine tumors. Cells were grown in DMEM High Glucose and Pyruvate medium (Gibco 41966029) supplemented with 10% fetal bovine serum (Gibco 10270106) and 100 U/mL penicillin-streptomycin (Sigma-Aldrich P4333) and were maintained in a humidified incubator at 37 °C with 5% CO2 supply. All in vitro results were obtained from a minimum of three replicates per condition.
Hereafter, fractions were collected. First, the membrane-bound fraction was collected following 10 min incubation at room temperature in strip buffer (50 mM glycine, 100 mM NaCl, pH 2.8). Then, the internalized fraction was collected by 30 min of cell lysis (1 M NaOH) at room temperature. […] In addition, total cell number per well was obtained using a MOXI™ automated cell counter (VWR, Leuven, Belgium).

[1] = Ex vivo biodistribution in CA20948 xenograft mice; settings: mouse, iv
Method: Quantification of activity was performed with an automated gamma counter equipped with a 3-in NaI(Tl) detector coupled to a multichannel analyzer (2480 Wizard^2, Perkin Elmer, Zaventem, Belgium). The results were corrected for background signal, physical decay during counting and detector dead time.
Male NMRI nude mice (between 8 and 15 weeks old) were anesthetized with 2.5% isoflurane in O2 at a flow rate of 0.2 L min^−1 and subcutaneously injected on the right shoulder with 1 × 10^6 CA20948 cells resuspended in PBS with 30% matrigel®. Tumor dimensions were measured two or three times per week and volume was calculated as length × width × height. Mice were sacrificed if the tumor volume exceeded 600 mm^3 or if more than 10% of the original body weight was lost.
Additionally, similar biodistribution studies were performed with free (unlabeled) [^153Sm]SmCl3 to identify the organs with ^153Sm accumulation in case of release from the complex. […] The mice were sacrificed by an overdose pentobarbital (200 µL of 60 mg/mL) 1, 4, 24 and 72 h post-injection (p.i.) (n = 3–4 per time point). Blood was collected via cardiac puncture. Organs of interest were collected in tared tubes and weighed. The activity in the different organs was measured in the gamma counter. For the calculation of the total activity in the blood, bone and muscle, the masses were assumed to be, respectively, 7, 12 and 40% of the total body mass. Data were expressed as a percentage of injected activity (%IA) and standardized uptake value (SUV). %IA was calculated as (counts per min (cpm) in organ)/(IA converted to cpm) × 100. SUV was calculated as (activity in cpm in organ/weight of organ in g)/(IA/total body weight in g).

[2] = male, NMRI nude, bone, total radioactivity, read-out: Bone SUV
[3] = male, NMRI nude, in vivo, total radioactivity, read-out: Excreted %IA
[4] = male, NMRI nude, intestines, total radioactivity, read-out: Intestines %IA
[5] = male, NMRI nude, kidneys, total radioactivity, read-out: Kidneys %IA
[6] = male, NMRI nude, liver, total radioactivity, read-out: Liver %IA
[7] = male, NMRI nude, muscle, total radioactivity, read-out: Muscle %IA
[8] = male, NMRI nude, pancreas, total radioactivity, read-out: Pancreas %IA
[9] = male, NMRI nude, pancreas, total radioactivity, read-out: Pancreas SUV
[10] = male, NMRI nude, spleen, total radioactivity, read-out: Spleen SUV
[11] = male, NMRI nude, stomach, total radioactivity, read-out: Stomach %IA
[12] = male, NMRI nude, tumor, total radioactivity, read-out: Tumor %IA

T1 sequence (P30680 whole entry): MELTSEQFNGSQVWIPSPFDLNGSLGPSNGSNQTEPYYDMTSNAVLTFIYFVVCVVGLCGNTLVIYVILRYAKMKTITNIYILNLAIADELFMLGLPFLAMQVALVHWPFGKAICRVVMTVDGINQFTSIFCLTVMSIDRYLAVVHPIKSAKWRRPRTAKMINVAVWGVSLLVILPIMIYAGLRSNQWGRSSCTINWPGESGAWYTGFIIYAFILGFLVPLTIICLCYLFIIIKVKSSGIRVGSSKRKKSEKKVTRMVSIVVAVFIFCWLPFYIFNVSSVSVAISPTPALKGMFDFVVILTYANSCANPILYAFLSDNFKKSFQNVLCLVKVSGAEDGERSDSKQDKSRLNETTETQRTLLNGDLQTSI

C[C@@H](O)[C@H](NC(=O)[C@@H]1CSSC[C@H](NC(=O)[C@@H](Cc2ccccc2)NC(=O)CN2CCN(CC(=O)O)CCN(CC(=O)O)CCN(CC(=O)O)CC2)C(=O)N[C@@H](Cc2ccc(O)cc2)C(=O)N[C@H](Cc2c[nH]c3ccccc23)C(=O)N[C@@H](CCCCN)C(=O)N[C@@H]([C@@H](C)O)C(=O)N1)C(=O)O [[^153Sm]Sm-DOTA-TATE, metal not drawn]
internalized fraction of cell-associated activity (SSTR2 receptors; 2.5 nM (2.7 kBq), 1 h incubation, mean ± SD): 79 ± 2% | decrease of binding by co-incubation with unlabeled DOTA-TATE (SSTR2 receptors; 4-fold molar excess of unlabeled DOTA-TATE): about 40% | decrease of binding by co-incubation with unlabeled DOTA-TATE (SSTR2 receptors; 4000-fold molar excess of unlabeled DOTA-TATE): ~92% | SUV at 1 h ([1]; male, NMRI nude, blood, total radioactivity, read-out: Blood SUV): 0.1 SUV | tissue uptake dose at 4 h ([1]; male, NMRI nude, bone, total radioactivity, read-out: Bone %IA): 0.5 ± 0.1 %ID | SUV at 1 h [1, 2]: 0.1 SUV | SUV at 4 h [1, 2]: 0.1 SUV | tissue uptake dose at 1 h [1, 3]: 80 ± 4.4 %ID | tissue uptake dose at 4 h [1, 3]: 83 ± 3.5 %ID | tissue uptake dose at 24 h [1, 3]: 94.1 ± 3.6 %ID | tissue uptake dose at 72 h [1, 3]: 96.6 ± 1.7 %ID | tissue uptake dose at 4 h [1, 4]: 4.4 ± 1.5 %ID | tissue uptake dose at 72 h [1, 4]: 0.1 %ID | SUV at 72 h ([1]; male, NMRI nude, kidneys, total radioactivity): 0.1 SUV | tissue uptake dose at 4 h [1, 5]: 2.4 ± 0.6 %ID | tissue uptake dose at 72 h [1, 5]: 0.1 %ID | SUV at 24 h ([1]; male, NMRI nude, kidneys, total radioactivity, read-out: Kidneys SUV): 0.3 ± 0.1 SUV | tissue uptake dose at 1 h [1, 6]: 0.4 ± 0.1 %ID | tissue uptake dose at 24 h [1, 6]: 0.1 %ID | SUV at 1 h ([1]; male, NMRI nude, liver, total radioactivity, read-out: Liver SUV): 0.1 SUV | tissue uptake dose at 1 h ([1]; male, NMRI nude, lungs, total radioactivity, read-out: Lungs %IA): 0.1 %ID | SUV at 1 h ([1]; male, NMRI nude, lungs, total radioactivity, read-out: Lungs SUV): 0.1 SUV | tissue uptake dose at 1 h [1, 7]: 1 ± 0.4 %ID | tissue uptake dose at 24 h [1, 7]: 0.1 %ID | SUV at 4 h ([1]; male, NMRI nude, muscle, total radioactivity, read-out: Muscle SUV): 0.1 SUV | tissue uptake dose at 1 h [1, 8]: 1 ± 0.1 %ID | tissue uptake dose at 4 h [1, 8]: 0.4 ± 0.3 %ID | tissue uptake dose at 24 h [1, 8]: 0.1 %ID | SUV at 4 h [1, 9]: 0.6 ± 0.4 SUV | SUV at 24 h [1, 9]: 0.1 SUV | SUV at 1 h [1, 10]: 0.1 SUV | SUV at 4 h [1, 10]: 0.1 SUV | tissue uptake dose at 1 h [1, 11]: 0.7 ± 0.1 %ID | tissue uptake dose at 4 h [1, 11]: 1 ± 0.3 %ID | tissue uptake dose at 72 h [1, 11]: 0.1 %ID | tissue uptake dose at 4 h [1, 12]: 6.1 ± 3.7 %ID | tissue uptake dose at 24 h [1, 12]: 3.2 ± 2.9 %ID | tissue uptake dose at 72 h [1, 12]: 2.2 ± 1.6 %ID | SUV at 4 h ([1]; male, NMRI nude, tumor, total radioactivity, read-out: Tumor SUV): 4.4 ± 1.1 SUV | tissue uptake dose at 4 h ([1]; male, NMRI nude, whole blood, total radioactivity, read-out: Blood %IA): 0.1 %ID | tissue uptake dose at 24 h ([1]; bone, total radioactivity, 24 h p.i., CA20948 tumor bearing male NMRI-nude mice, ~2-3 MBq i.v., mean ± SD, n = 3-4, read-out: Bone %IA): 0.2 ± 0.1 %ID | tissue uptake dose at 72 h ([1]; bone, total radioactivity, 72 h p.i., CA20948 tumor bearing male NMRI-nude mice, ~2-3 MBq i.v., mean ± SD, n = 3-4, read-out: Bone %IA): 0.2 %ID | Blood %IA ([1]; in vivo): 0.0 ± 0.0 %IA | Blood SUV ([1]; in vivo): 0.0 ± 0.0 | Bone %IA ([1]; in vivo): 0.4 ± 0.0 %IA | Bone SUV ([1]; in vivo): 0.0 ± 0.0 | Brain %IA ([1]; in vivo): 0.0 ± 0.0 %IA | Brain SUV ([1]; in vivo): 0.0 ± 0.0 | Heart %IA ([1]; in vivo): 0.0 ± 0.0 %IA | Heart SUV ([1]; in vivo): 0.0 ± 0.0 | Liver SUV ([1]; in vivo): 0.0 ± 0.0 | Lungs %IA ([1]; in vivo): 0.0 ± 0.0 %IA | Lungs SUV ([1]; in vivo): 0.0 ± 0.0 | Muscle %IA ([1]; in vivo): 0.0 ± 0.0 %IA | Muscle SUV ([1]; in vivo): 0.0 ± 0.0 | Pancreas %IA ([1]; in vivo): 0.0 ± 0.0 %IA | Pancreas SUV ([1]; in vivo): 0.0 ± 0.0 | Spleen %IA ([1]; in vivo): 0.0 ± 0.0 %IA | Spleen SUV ([1]; in vivo): 0.0 ± 0.0 | tissue uptake dose at 1 h ([1]; intestines, total radioactivity, 1 h p.i., CA20948 tumor bearing male NMRI-nude mice, ~2-3 MBq i.v., mean ± SD, n = 3-4, read-out: Intestines %IA): 2 ± 0.3 %ID | tissue uptake dose at 24 h ([1]; intestines, total radioactivity, 24 h p.i., CA20948 tumor bearing male NMRI-nude mice, ~2-3 MBq i.v., mean ± SD, n = 3-4, read-out: Intestines %IA): 0.6 ± 0.2 %ID | tissue uptake dose at 1 h ([1]; total radioactivity, 1 h p.i., CA20948 tumor bearing male NMRI-nude mice, ~2-3 MBq i.v., mean ± SD, n = 3-4, read-out: Tumor %IA): 3.7 ± 2 %ID | tissue uptake dose at 24 h ([1]; kidneys, total radioactivity, 24 h p.i., CA20948 tumor bearing male NMRI-nude mice, ~2-3 MBq i.v., mean ± SD, n = 3-4, read-out: Kidneys %IA): 0.5 ± 0.2 %ID | tissue uptake dose at 4 h ([1]; liver, total radioactivity, 4 h p.i., CA20948 tumor bearing male NMRI-nude mice, ~2-3 MBq i.v., mean ± SD, n = 3-4, read-out: Liver %IA): 0.2 %ID | tissue uptake dose at 72 h ([1]; liver, total radioactivity, 72 h p.i., CA20948 tumor bearing male NMRI-nude mice, ~2-3 MBq i.v., mean ± SD, n = 3-4, read-out: Liver %IA): 0.2 %ID | SUV at 1 h ([1]; muscle, total radioactivity, 1 h p.i., CA20948 tumor bearing male NMRI-nude mice, ~2-3 MBq i.v., mean ± SD, n = 3-4, read-out: Muscle SUV): 0.2 ± 0.1 SUV | tissue uptake dose at 4 h ([1]; muscle, total radioactivity, 4 h p.i., CA20948 tumor bearing male NMRI-nude mice, ~2-3 MBq i.v., mean ± SD, n = 3-4, read-out: Muscle %IA): 0.4 ± 0.2 %ID | SUV at 1 h ([1]; pancreas, total radioactivity, 1 h p.i., CA20948 tumor bearing male NMRI-nude mice, ~2-3 MBq i.v., mean ± SD, n = 3-4, read-out: Pancreas SUV): 1.2 ± 0.2 SUV | tissue uptake dose at 24 h ([1]; stomach, total radioactivity, 24 h p.i., CA20948 tumor bearing male NMRI-nude mice, ~2-3 MBq i.v., mean ± SD, n = 3-4, read-out: Stomach %IA): 0.3 ± 0.2 %ID | tissue uptake dose at 1 h ([1]; whole blood, total radioactivity, 1 h p.i., CA20948 tumor bearing male NMRI-nude mice, ~2-3 MBq i.v., mean ± SD, n = 3-4, read-out: Blood %IA): 0.7 ± 0.2 %ID

From article PMC9785812 (Pharmaceutics, 2022)
